This note sets out measurements from US8012695B2, “Methods and compositions relating to promoter regulation by MUC1 and KLF proteins” (Dana-Farber Cancer Institute, Inc., priority 2007, dated 2011).

Experiment [1] deals with T1, KLF4 (Homo sapiens, UniProt O43474).
T1 construct: host or cells: rabbit reticulocyte lysate, cell-free transcription/translation
Description: GST pull-down assay with 35S-labeled KLF4. The following applies: adsorbates to glutathione beads, 2 h at 4° C., autoradiography. It counts as binding. How it is done: FIG. 3D is a pair of photographs of (a) an autoradiogram and (b) a Coomassie blue stained polyacrylamide gel. GST, GST-MUC1-CD(1-72), GST-MUC1-CD(47-72), or GST-MUC1-CD(1-46) were bound to glutathione-conjugated agarose beads and incubated with [^35S]-labeled KLF4 protein. The beads were washed to remove unbound KLF4 protein. The remaining adsorbates were analyzed by SDS-PAGE and autoradiography (top photograph). Input KLF4 protein is shown in the first lane of the top photograph. Input of the GST and GST-MUC1-CD fusion proteins was assessed by Coomassie blue staining. The molecular weights of the proteins (expressed in kilodaltons (kDa)) are indicated at the left of each of the photographs.
GST pull-down assays. GST and GST fusion proteins were purified by binding to glutathione-agarose beads (Sigma). ^35S-labeled KLF4, prepared in rabbit reticulocyte lysate transcription/translation (TNT) reactions (Promega Corporation), was incubated with GST or the GST fusion proteins for 2 h at 4° C. After washing, the adsorbed proteins were resolved by SDS-PAGE and analyzed by autoradiography.
To determine if MUC1-C occupies the PE21 region with KLF4, Re-ChIP assays were performed using anti-MUC1-C and anti-KLF4 antibodies. […] Moreover, DNA damage had little if any effect on this interaction (FIG. 7B). […]

The test system of experiment [2] is ZR-75-1 breast cancer cells. Description: Immunoblot analysis of p53 in ZR-75-1 cells. The class given is cell-based, human. The settings on record: ZR-75-1/MUC1siRNA cells transfected with pCMV-MUC1-CD, 24 hours. (In general: In western blotting, separated proteins are transferred to a membrane and probed.)
Description: Cell culture. […] Human ZR-75-1 breast cancer cells and those stably infected with a control siRNA (ZR-75-1/CsiRNA) or one expressing a MUC1siRNA (ZR-75-1/MUC1siRNA) (Wei et al. (2006) Mol. Cell. 21: 295-305) were cultured in RPMI 1640 medium supplemented with 10% HI-FBS, 100 μg/ml streptomycin, 100 units/ml penicillin, and 2 mM L-glutamine.
Immunoblotting. […] Immunoblot analysis was performed with anti-p53 (Ab-2, Ab-6; Oncogene Research Products), anti-MUC1-C (Ab-5; Neomarkers, Freemont, Calif.), anti-KLF4 (H-180; Santa Cruz Biotechnology), anti-β-actin (Sigma), anti-IκBα (Santa Cruz Biotechnology), or anti-PCNA (F-2; Santa Cruz Biotechnology) antibodies. Whole cell lysates were also, prior to analysis by immunoblotting, first subjected to immunoprecipitation with an anti-KLF4 antibody. Immunocomplexes were detected with enhanced chemiluminescence (ECL; PerkinElmer Life Sciences).
The test system of experiment [3] is p53 promoter. In words: p53 promoter-Luc reporter assay in ZR-75-1 cells. The class given is cell-based, human. As to the method:
FIG. 4A is a bar graph (left) and a series of photographs of western blots (right) depicting the suppression of p53 gene transcription by MUC1. Bar graph, Left: ZR-75-1/MUC1siRNA cells were transfected with the −2400-p53-Luc reporter or the −320-p53-Luc reporter construct. The X-axis indicates the amount of MUC1-CD DNA (and a control LacZ expression plasmid) in μg (“μg MUC1-CD) also transfected into each cell. the indicated amounts of MUC1-CD. At 40 h after transfection, lysates were prepared from the transfected cells and assayed for luciferase activity. The Y-axis represents the relative luciferase activity expressed as fold activation (mean±SD of 3 separate experiments) compared to that obtained with empty vector-transfected cells (assigned a value of 1). Western blots, right: ZR-75-1/MUC1siRNA cells were transfected with the indicated amounts (in μg) of pCMV or pCMV-MUC1-CD vectors. At 24 hours after transfection, lysates from the indicated ZR-75-1/MUC1siRNA cells were immunoblotted (“IB”) with antibodies specific for p53, MUC1-C, or β-actin (as indicated below each photograph). […]
FIG. 4B is a pair of bar graphs. […] The Y-axis represents the relative luciferase activity expressed as the fold activation (mean±SD of 3 separate experiments) compared to that obtained with empty vector-transfected cells (assigned a value of 1). […]

The subject of experiment [4] is p53 promoter. In words: p53 promoter-Luc reporter assay in MCF-7 cells. It counts as cell-based, human. The settings on record: −2400-p53-Luc, 0.5 μg MUC1-CD, increasing amounts of KLF4. How it is done: FIG. 4B is a pair of bar graphs. MCF-7 (left bar graph) or ZR-75-1 (right bar graph) cells were transfected with the −2400-p53-Luc reporter, the indicated amounts (0, 0.5, or 1 μg) of KLF4, 0.5 μg MUC1-CD and an internal control LacZ expression plasmid (pCMV-LacZ). At 40 hours after transfection, the cells were assayed for luciferase activity (as described above). The Y-axis represents the relative luciferase activity expressed as the fold activation (mean±SD of 3 separate experiments) compared to that obtained with empty vector-transfected cells (assigned a value of 1).
Transfection and reporter assays. Transfections were performed in 60 mm dishes using Fugene-6 (Roche Applied Science) or, for the luciferase assays, in 24 well plates using the calcium phosphate method (Invitrogen). Cells were transfected with the −2400-p53-Luc reporter, −2400-PE21-MUT-Luc reporter, −320-p53-Luc reporter, −320-PE21-MUT-Luc reporter (Rowland et al. (2005) Nat. Cell Biol. 7: 1074-1082) and an internal control LacZ expression plasmid (pCMV-LacZ) (Wei et al. (2001) J. Biol. Chem. 276: 16107-16112). Luciferase assays were performed with the Luciferase Assay System (Promega Corporation, Madison, Wis.) at 40 hours after transfection. Luciferase activity was normalized to that obtained for LacZ and presented as relative luciferase activity. […]
A general note: In a reporter assay the amount or activity of a reporter protein is the signal.

Ends that are not written are not given here.

T1 sequence (O43474 10-513 limits assumed): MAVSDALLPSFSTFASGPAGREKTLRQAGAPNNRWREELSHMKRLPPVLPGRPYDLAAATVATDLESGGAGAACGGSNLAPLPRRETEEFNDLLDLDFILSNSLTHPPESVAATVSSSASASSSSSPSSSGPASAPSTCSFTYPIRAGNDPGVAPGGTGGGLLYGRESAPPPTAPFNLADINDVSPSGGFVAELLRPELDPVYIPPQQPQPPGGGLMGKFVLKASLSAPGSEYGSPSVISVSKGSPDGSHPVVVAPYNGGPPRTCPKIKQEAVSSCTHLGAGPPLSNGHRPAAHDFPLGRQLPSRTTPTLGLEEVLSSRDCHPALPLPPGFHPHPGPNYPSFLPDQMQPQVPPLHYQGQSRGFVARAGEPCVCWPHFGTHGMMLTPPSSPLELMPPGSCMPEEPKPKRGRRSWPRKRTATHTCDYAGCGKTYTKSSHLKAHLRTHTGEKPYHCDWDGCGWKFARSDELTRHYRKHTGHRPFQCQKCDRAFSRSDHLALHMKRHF

Regarding “MUC1-CD(47-72): GST fusion of MUC1-CD deletion fragment, amino acids 47-72 (EKVSAGNGGSSLSYTNPAVAAASANL; also: GST fusion (side not given here); listed as Homo sapiens)”, the “binding of [35S]-labeled KLF4 to GST fusion protein” value in experiment [1] is given as “not”.

B1: MUC1-CD(1-72): GST fusion of the MUC1 cytoplasmic domain, amino acids 1-72 (SEQ ID NO:2) (protein)
chain: CQCRRKNYGQLDIFPARDTYHPMSEYPTYHTHGRYVPPSSTDRSPYEKVSAGNGGSSLSYTNPAVAAASANL
modifications: left off: a dimerising Fc or GST
Consider B1, for which the “binding of [35S]-labeled KLF4 to GST fusion protein” value in experiment [1] is recorded as “binds”.

B2: MUC1-CD: MUC1 cytoplasmic domain expressed in cells by transfection of the pCMV-MUC1-CD vector (protein, listed as Homo sapiens)
chain: B1 chain
For B2, in experiment [2], the “p53 levels (immunoblot)” value is reported as “downregulates p53 levels”. In addition, the “p53 gene transcription (luciferase activity)” value in experiment [3] (ZR-75-1/MUC1siRNA cells, −2400-p53-Luc or −320-p53-Luc, 40 h after transfection) is listed as “suppresses p53 gene transcription”. Moreover, the “effect on KLF4-mediated suppression of p53 transcription (luciferase)” value is “potentiates KLF4-mediated suppression of p53 transcription” in experiment [3] (ZR-75-1 cells, −2400-p53-Luc, 0.5 μg MUC1-CD, increasing amounts of KLF4) and “potentiates KLF4-mediated suppression of p53 transcription” in experiment [4].
